EC50 (pM), hGIP-R CRE Luc, 0.2% HSA, EC50 (pM), hGcg-R CRE Luc, 1% HSA (footnote *) and EC50 (pM), hGLP-1-R CRE Luc, 0.2% HSA data for 30 molecules are collected here from US20190367578A1 (Novo Nordisk, published 2019).

Assay in all cases: cell-based or functional assay
Assay [1] has as its target T1, human GIP receptor (human) (UniProt P48546).
T1 sequence (looked up): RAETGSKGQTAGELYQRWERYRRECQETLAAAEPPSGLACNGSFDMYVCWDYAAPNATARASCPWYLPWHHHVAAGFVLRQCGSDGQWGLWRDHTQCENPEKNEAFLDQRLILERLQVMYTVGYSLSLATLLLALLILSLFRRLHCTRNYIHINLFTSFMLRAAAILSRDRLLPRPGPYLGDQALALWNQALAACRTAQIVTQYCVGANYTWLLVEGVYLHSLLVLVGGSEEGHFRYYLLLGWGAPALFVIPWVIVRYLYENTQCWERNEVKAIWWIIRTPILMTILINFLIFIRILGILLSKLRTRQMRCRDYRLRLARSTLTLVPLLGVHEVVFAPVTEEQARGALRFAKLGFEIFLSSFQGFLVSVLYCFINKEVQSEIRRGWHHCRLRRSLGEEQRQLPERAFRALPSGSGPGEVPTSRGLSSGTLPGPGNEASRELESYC

For assay [2], the target named is human glucagon receptor (human) (UniProt P47871).
For assay [3], the target named is human GLP-1 receptor (human) (UniProt P43220).

*1 amine or outer side, *2 acyl side, *3 side chain or, on linkers, in order; H or OH if unused. Where no end group is shown, it is not given here. Side-chain parts run from the residue outwards. [ ]: non-standard residue; d: D form. The star is where a group is joined. C20 diacid = O=C(O)CCCCCCCCCCCCCCCCCCC(=O)*; C18 diacid = O=C(O)CCCCCCCCCCCCCCCCC(=O)*; γGlu = O=C(O)[C@H](CCC(=O)[*:2])N[*:1]; Nle = CCCC[C@H](N)C(=O)O; AEEA = NCCOCCOCC(=O)O; Aib = CC(C)(N)C(=O)O

Sequence of human GLP-1 receptor (human) (P43220 24-463): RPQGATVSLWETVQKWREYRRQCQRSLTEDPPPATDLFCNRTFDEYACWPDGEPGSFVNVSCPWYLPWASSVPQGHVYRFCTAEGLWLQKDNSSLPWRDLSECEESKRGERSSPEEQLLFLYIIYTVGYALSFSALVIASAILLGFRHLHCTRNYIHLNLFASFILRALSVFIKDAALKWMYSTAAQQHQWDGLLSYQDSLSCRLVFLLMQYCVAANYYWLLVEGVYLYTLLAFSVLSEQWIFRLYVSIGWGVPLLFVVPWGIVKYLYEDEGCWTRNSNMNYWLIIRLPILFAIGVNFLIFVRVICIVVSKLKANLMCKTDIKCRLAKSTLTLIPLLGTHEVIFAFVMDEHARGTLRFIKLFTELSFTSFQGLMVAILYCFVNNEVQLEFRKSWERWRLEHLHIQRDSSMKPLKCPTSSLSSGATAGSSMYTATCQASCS
Sequence of human glucagon receptor (human) (P47871 26-477): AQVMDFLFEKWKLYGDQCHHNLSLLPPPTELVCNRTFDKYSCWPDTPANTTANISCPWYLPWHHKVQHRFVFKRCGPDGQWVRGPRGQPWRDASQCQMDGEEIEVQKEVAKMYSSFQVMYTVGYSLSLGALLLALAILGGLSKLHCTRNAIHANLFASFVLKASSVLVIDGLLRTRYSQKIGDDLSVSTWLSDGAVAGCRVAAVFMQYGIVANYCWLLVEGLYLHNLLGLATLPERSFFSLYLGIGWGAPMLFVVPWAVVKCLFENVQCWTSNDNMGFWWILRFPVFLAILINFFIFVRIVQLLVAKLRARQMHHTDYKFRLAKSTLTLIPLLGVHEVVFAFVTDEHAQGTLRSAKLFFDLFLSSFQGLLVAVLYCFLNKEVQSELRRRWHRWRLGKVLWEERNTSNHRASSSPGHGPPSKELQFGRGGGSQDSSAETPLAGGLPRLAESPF

Molecule “N{Epsilon-24}-[(4S)-4-carboxy-4-[[(4S)-4-carboxy-4-[[(4S)-4-carboxy-4-[[4-[(19-carboxynonadecanoylamino)methyl]cyclohexanecarbonyl]amino]butanoyl]amino]butanoyl]amino]butanoyl]-[Aib2,Nle14,Arg18,Lys24]-hGIP(1-31) (peptide)” had an EC50 (pM), hGIP-R CRE Luc, 0.2% HSA in assay [1] of 72.1 pM.

“N{1}-acetyl,N{Epsilon-24}-[(4S)-4-carboxy-4-[[(4S)-4-carboxy-4-[[(4S)-4-carboxy-4-[[4-[(19-carboxynonadecanoylamino)methyl]cyclohexanecarbonyl]amino]butanoyl]amino]butanoyl]amino]butanoyl]-[D-Tyr1,Aib2,Nle14,Arg18,Lys24]-hGIP(1-31) (peptide)”: the EC50 (pM), hGIP-R CRE Luc, 0.2% HSA in assay [1] was determined as 135 pM. Regarding “N{Epsilon-24}-[(4S)-4-carboxy-4-[[(4S)-4-carboxy-4-[[(4S)-4-carboxy-4-[[4-[(19-carboxynonadecanoylamino)methyl]cyclohexanecarbonyl]amino]butanoyl]amino]butanoyl]amino]butanoyl]-[Aib2,Nle14,Arg18,Lys24,Pro31]-hGIP(1-31) amide (peptide)”, the EC50 (pM), hGIP-R CRE Luc, 0.2% HSA in assay [1] worked out at 61.5 pM. With “N{1}-acetyl,N{Epsilon-24}-[(4S)-4-carboxy-4-[[(4S)-4-carboxy-4-[[(4S)-4-carboxy-4-[[(4S)-4-carboxy-4-[[4-[(19-carboxynonadecanoylamino)methyl]cyclohexanecarbonyl]amino]butanoyl]amino]butanoyl]amino]butanoyl]amino]butanoyl]-[D-Tyr1,Aib2,Nle14,Arg18,Lys24,Pro31]-hGIP(1-31) amide (peptide)”, the EC50 (pM), hGcg-R CRE Luc, 1% HSA (footnote *) in assay [2] is > 100000 pM. In addition, the EC50 (pM), hGIP-R CRE Luc, 0.2% HSA in assay [1] is 26.1 pM. In turn, “N{Epsilon-24}-[2-[2-[2-[[2-[2-[2-[[(4S)-4-carboxy-4-[[4-[(19-carboxynonadecanoylamino)methyl]cyclohexanecarbonyl]amino]butanoyl]amino]ethoxy]ethoxy]acetyl]amino]ethoxy]ethoxy]acetyl]-[Aib2,Nle14,Arg18,Lys24]-hGIP(1-31) (peptide)” showed an EC50 (pM), hGIP-R CRE Luc, 0.2% HSA in assay [1] of 44.7 pM.

The molecule “N{1}-acetyl,N{Epsilon-24}-[(4S)-4-carboxy-4-[[(4S)-4-carboxy-4-[[(4S)-4-carboxy-4-(17-carboxyheptadecanoylamino)butanoyl]amino]butanoyl]amino]butanoyl]-[D-Tyr1,Aib2,Nle14,Arg18,Lys24,Pro31]-hGIP(1-31) amide (peptide)” had an EC50 (pM), hGIP-R CRE Luc, 0.2% HSA in assay [1] of 21.2 pM. The EC50 (pM), hGLP-1-R CRE Luc, 0.2% HSA in assay [3] was > 100000 pM. In assay [1], “N{1}-acetyl, N{Epsilon-24}-[(4S)-4-carboxy-4-[[(4S)-4-carboxy-4-[[(4S)-4-carboxy-4-(17-carboxyheptadecanoylamino)butanoyl]amino]butanoyl]amino]butanoyl]-[D-Tyr1,Aib2,Nle14,Arg18,Lys24]-hGIP(1-31) (peptide)” had an EC50 (pM), hGIP-R CRE Luc, 0.2% HSA of 20.9 pM. As for Ac-YAEGTFISDYSIA[Nle]DKIRQQDFVK([γGlu-γGlu-γGlu-C18 diacid])WLLAQKG, in assay [1], the EC50 (pM), hGIP-R CRE Luc, 0.2% HSA is 546 pM. Still for that read-out and setting: the result for Ac-[dY]AEGTFISDYSIA[Nle]DKIHQEDFVK([γGlu-γGlu-γGlu-4‑(aminomethyl)cyclohexanecarbonyl-C20 diacid])WLLAQKG reads 547 pM; that for Y[Aib]EGTFISDYSIA[Nle]DKIRQEDFVK([γGlu-γGlu-γGlu-C18 diacid])WLLAQKG, 62.9 pM. Regarding Ac-[dY]AEGTFISDYSIA[Nle]DKIRQQDFVK([AEEA-AEEA-γGlu-C18 diacid])WLLAQKG, the EC50 (pM), hGIP-R CRE Luc, 0.2% HSA in assay [1] was found to be 30.4 pM. The molecule Y[Aib]EGTFISDYSIA[Nle]DKIHQEDFVK([γGlu-γGlu-γGlu-γGlu-4‑(aminomethyl)cyclohexanecarbonyl-C20 diacid])WLLAQKG displayed an EC50 (pM), hGIP-R CRE Luc, 0.2% HSA in assay [1] of 810 pM. Molecule Y[Aib]EGTFISDYSIA[Nle]DAIRQQDFVK([γGlu-γGlu-γGlu-4‑(aminomethyl)cyclohexanecarbonyl-C20 diacid])WLLAQKG displayed an EC50 (pM), hGIP-R CRE Luc, 0.2% HSA in assay [1] of 266 pM. In the case of Y[Aib]EGTFISDYSIA[Nle]DKIHQEDFVK([γGlu-γGlu-γGlu-γGlu-C18 diacid])WLLAQKG, the EC50 (pM), hGIP-R CRE Luc, 0.2% HSA in assay [1] stood at 158 pM.

Regarding Ac-[dY]AEGTFISDYSIA[Nle]DKIRQQDFVK([γGlu-γGlu-γGlu-C18 diacid])WLLAQKG, the EC50 (pM), hGIP-R CRE Luc, 0.2% HSA in assay [1] came to 48.9 pM. In assay [1], Y[Aib]EGTFISDYSIA[Nle]DKIRQEDFVK([γGlu-γGlu-γGlu-4‑(aminomethyl)cyclohexanecarbonyl-C20 diacid])WLLAQKG returned an EC50 (pM), hGIP-R CRE Luc, 0.2% HSA of 252 pM. In turn, Y[Aib]EGTFISDYSIA[Nle]DAIRQQDFVK([γGlu-γGlu-γGlu-C18 diacid])WLLAQKG returned an EC50 (pM), hGIP-R CRE Luc, 0.2% HSA in assay [1] of 72.5 pM.

Ac-[dY]AEGTFISDYSIA[Nle]DKIRQQDFVK([γGlu-γGlu-γGlu-4‑(aminomethyl)cyclohexanecarbonyl-C20 diacid])WLLAQKG gave an EC50 (pM), hGIP-R CRE Luc, 0.2% HSA in assay [1] of 180 pM. Molecule Ac-[dY]AEGTFISDYSIADDKIRQEDFVK([AEEA-AEEA-γGlu-C18 diacid])WLLAQKG registered an EC50 (pM), hGIP-R CRE Luc, 0.2% HSA in assay [1] of 91.5 pM.

Molecule Y[Aib]EGTFISDYSIA[Nle]DKIRQQDFVK([AEEA-AEEA-γGlu-4‑(aminomethyl)cyclohexanecarbonyl-C20 diacid])WLLAQKGKEEDWKHNITQ yielded an EC50 (pM), hGIP-R CRE Luc, 0.2% HSA in assay [1] of 14 pM. Same read-out and setting: the result for Y[Aib]EGTFISDYSIA[Nle]DKIHQQDFVK([γGlu-γGlu-γGlu-4‑(aminomethyl)cyclohexanecarbonyl-C20 diacid])WLLAQKP-NH2 reads 67.5 pM; that for Ac-[dY]AEGTFISDYSIA[Nle]DKIHQ[Aib]DFVK([γGlu-γGlu-γGlu-4‑(aminomethyl)cyclohexanecarbonyl-C20 diacid])WLLAQKG, 153 pM.

In assay [1], Ac-[dY]AEGTFISDYSIA[Nle]DKIRQQDFVK([AEEA-AEEA-γGlu-γGlu-γGlu-C18 diacid])WLLAQKG returned an EC50 (pM), hGIP-R CRE Luc, 0.2% HSA of 43.1 pM. In assay [1], Ac-[dY]AEGTFISDYSIA[Nle]DKIRQQDFVK([γGlu-γGlu-γGlu-4‑(aminomethyl)cyclohexanecarbonyl-C20 diacid])WLLAQKP-NH2 yielded an EC50 (pM), hGIP-R CRE Luc, 0.2% HSA of 76.2 pM. On the same count and under the same terms, the result for Y[Aib]EGTFISDYSIA[Nle]DKIRQQDFVK([γGlu-γGlu-γGlu-4‑(aminomethyl)cyclohexanecarbonyl-C20 diacid])WLLAQKGKEEDWKHNITQ reads 22 pM; that for Ac-[dY][Aib]EGTFISDYSIA[Nle]DKIHQQDFVK([γGlu-γGlu-γGlu-4‑(aminomethyl)cyclohexanecarbonyl-C20 diacid])WLLAQKP-NH2, 38.4 pM. Y[Aib]EGTFISDYSIA[Nle]DKIRQ[Aib]DFVK([γGlu-γGlu-γGlu-4‑(aminomethyl)cyclohexanecarbonyl-C20 diacid])WLLAQKG displayed an EC50 (pM), hGIP-R CRE Luc, 0.2% HSA in assay [1] of 71.2 pM. In assay [1], Ac-[dY]AEGTFISDYSIA[Nle]DKIHQQDFVK([γGlu-γGlu-γGlu-4‑(aminomethyl)cyclohexanecarbonyl-C20 diacid])WLLAQKP-NH2 registered an EC50 (pM), hGIP-R CRE Luc, 0.2% HSA of 71.2 pM. Ac-[dY]AEGTFISDYSIA[Nle]DKIRQEDFVK([AEEA-AEEA-γGlu-C18 diacid])WLLAQKG returned an EC50 (pM), hGIP-R CRE Luc, 0.2% HSA in assay [1] of 25 pM.

The molecule Y[Aib]EGTFISDYSIA[Nle]DKIRQ[Aib]DFVK([γGlu-γGlu-γGlu-C18 diacid])WLLAQKG had an EC50 (pM), hGIP-R CRE Luc, 0.2% HSA in assay [1] of 9.4 pM.
